From US20060035265A1 come the findings set out here.

The target of test [1] is FLAG-ZIgA fusion protein. As to the kind of experiment: scintillation counting of antibody-coated beads after mixing with 35S-labelled transcription/translation mix.
Test [2] concerns the target FLAG-Zwt fusion protein. Described as above.
Test [3] concerns the target FLAG-ZIgA fusion protein. As to the kind of experiment: scintillation counting of beads after mixing with 35S-labelled transcription/translation mix; negative control without antibody.
Test [4] addresses FLAG-Zwt fusion protein. The test is described as above.

For “biotinylated anti-FLAG BioM5 monoclonal antibody (Sigma prod no. F-2922)”, the Signal (cpm) with FLAG-ZIgA fusion protein [1] came to 43700 cpm; with FLAG-Zwt fusion protein [2], 35000 cpm.
Take “streptavidin on native streptavidin (SA) beads (M-280-SA Dynabeads) (from UniProt P22629 37-163)”: the figures for the Signal (cpm) with FLAG-ZIgA fusion protein [3] and in the test with FLAG-Zwt fusion protein [4] were 5960 cpm and 4860 cpm, respectively.
